Measurements: patent US20240158497A1 (published 2024)

Tests used:
[1] = molecular target: T1, human gp130 expressed endogenously on IMR-32/Stat3-luc cells (human, UniProt P40189 23-918); assay: cell-based or functional assay
T1 sequence: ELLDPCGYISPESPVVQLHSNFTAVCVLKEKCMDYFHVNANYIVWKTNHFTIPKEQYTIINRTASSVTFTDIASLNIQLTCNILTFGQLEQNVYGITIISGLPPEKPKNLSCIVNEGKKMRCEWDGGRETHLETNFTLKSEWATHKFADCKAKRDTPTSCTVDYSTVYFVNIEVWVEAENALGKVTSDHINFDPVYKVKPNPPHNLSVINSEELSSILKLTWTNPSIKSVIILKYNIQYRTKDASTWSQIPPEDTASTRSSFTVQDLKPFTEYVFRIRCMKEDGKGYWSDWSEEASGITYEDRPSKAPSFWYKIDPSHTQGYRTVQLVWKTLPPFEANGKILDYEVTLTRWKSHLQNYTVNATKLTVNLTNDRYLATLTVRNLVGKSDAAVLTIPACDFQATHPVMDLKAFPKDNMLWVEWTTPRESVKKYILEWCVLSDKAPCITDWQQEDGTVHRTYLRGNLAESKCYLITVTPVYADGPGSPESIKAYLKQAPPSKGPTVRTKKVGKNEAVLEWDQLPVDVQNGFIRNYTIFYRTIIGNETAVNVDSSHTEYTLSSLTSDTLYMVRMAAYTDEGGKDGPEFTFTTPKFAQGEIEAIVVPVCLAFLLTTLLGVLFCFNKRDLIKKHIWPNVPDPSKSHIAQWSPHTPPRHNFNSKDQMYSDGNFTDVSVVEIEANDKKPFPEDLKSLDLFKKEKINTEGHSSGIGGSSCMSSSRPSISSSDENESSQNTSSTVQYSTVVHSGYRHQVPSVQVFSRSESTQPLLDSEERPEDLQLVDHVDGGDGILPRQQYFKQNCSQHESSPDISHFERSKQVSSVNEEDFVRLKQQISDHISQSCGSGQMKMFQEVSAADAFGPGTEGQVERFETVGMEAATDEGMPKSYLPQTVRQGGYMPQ

[2] = molecular target: T1, human gp130 expressed endogenously on …; assay: FACS, 10 nM Ab, IMR-32/Stat3-luc cells, no hGP130.mmh
Description: (§1) In order to assess cell binding by anti-GP130 antibodies of the invention two cell lines were generated. One cell line generated was HEK293 cells stably over-expressing full length (FL) human gp130 (amino acids 1-918 of accession #P40189 with leucine at position 2 changed to valine, a natural variant) along with a luciferase reporter (Stat3-luciferase, Stat3-luc, SA Bioscience, #CLS-6028L). The cells were sorted twice using flow cytometry for high expression of gp130. It is known hereafter as HEK293/Stat3-luc/gp130-2 X Sort. IMR-32 cells (human Neuroblastoma, ATCC), were also evaluated for cell binding as these cells express gp130 endogenously and were used for bioassays. The cells used for binding were generated to stably express a luciferase reporter (Stat3-luciferase, Stat3-luc, SA Bioscience, #CLS-6028L), and are referred to hereafter as IMR-32/STAT3-Luc cells.
(§2) For the FACS analysis, 10 nM of the antibodies were used to stain 0.5×10⁶ cells/well of each cell type at 4° C. in PBS (without calcium and magnesium) containing 2% FBS for 30 minutes. IMR-32/STAT3-luc cells were incubated with 1 mg/mL mouse IgG for 30 minutes at 4° C. to block Fc receptors prior to adding the antibodies. To test whether the anti-gp130 antibody binding is specific for gp130 on the IMR-32 cells, antibodies were added to IMR-32/Stat3-luc cells with or without being pre-bound to 1000 nM of recombinant protein of the ecto-domain of human gp130 fused to myc-myc-his tag (hgp130.mmh) for 30 minutes at 25° C. […] Cells were fixed using BD CytoFix™ (Becton Dickinson, #554655) and analyzed on an IQue® (Intellicyt®) Flow Cytometer. Unstained and secondary antibody alone controls were also tested for all cell lines. The results were analyzed using ForeCyt® (IntelliCyt®) software to determine the geometric means of fluorescence for viable cells.

[3] = molecular target: T2, full length (FL) human gp130 over-expressed on HEK293/Stat3-luc/gp130-2X Sort cells (human, UniProt P40189 23-918); assay: FACS, 10 nM Ab, HEK293/Stat3-luc/gp130-2X Sort cells
T2 sequence: T1 sequence
Description: as §1, §2

[4] = molecular target: T1, human gp130 expressed endogenously on …; assay: FACS, 10 nM Ab pre-bound to 1 uM hGP130.mmh, IMR-32/Stat3-luc cells
Description: as §1, §2

- % inhibition; CNTF (20 pM) [1]: 46%
- % inhibition; LIF (20 pM) [1]: 52%
- % inhibition; OSM (100 pM) [1]: 62%
- IC50 [M]; CNTF (20 pM) [1]: > 1e-07 M
- IC50 [M]; LIF (20 pM) [1]: 9e-09 M
- IC50 [M]; OSM (100 pM) [1]: > 5e-08 M
- MFI - Normalized to Unstained Control [2]: 10 ratio
- MFI - Normalized to Unstained Control [3]: 107 ratio
- MFI - Normalized to Unstained Control [4]: 7 ratio
B1: MAb16673 (antibody, V domains shown)
VH: EVQLVQSGAEVKKPGESLKISCKGSGYSFTSYWIDWVRQMPGKGLEWMGIIYPDDSDTRYSPSFQGQVTMSVDKSISTAYLQWSSLKASDTAIYYCARHERGIVEAGTDYYYYYGMDVWGQGTTVTVSS
VL: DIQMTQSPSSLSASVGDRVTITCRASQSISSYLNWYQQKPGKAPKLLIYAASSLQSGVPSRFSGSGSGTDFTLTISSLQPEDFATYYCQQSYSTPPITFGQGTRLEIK
notes: hIgG4 isotype control used
